Publication PMC12412103, “An Amyloidogenic Fragment of the Spike Protein from SARS-CoV‑2 Virus Stimulates the Aggregation and Toxicity of Parkinson’s Disease Protein Alpha-Synuclein” (ACS Chemical Neuroscience, 2025)

Target: mS194 (Spike 194–203 monomer) (Severe acute respiratory syndrome coronavirus 2, UniProt P0DTC2)

| Substance | effect of fAβ on mS194 aggregation | increase of ThT fluorescence intensity of mS194 versus mS194 alone [fold] |
| --- | --- | --- |
| fAβ25–35 (GSNKGAIIGLM; Amyloid-beta protein 42 fibrillar; UniProt P05067 696-706, looked up, fragment) | acceleration of mS194 aggregation | 4 |
| fAβ1–42 | acceleration of mS194 aggregation | – |
